Measured values taken from patent publication US20260098270, “MULTIVALENT TRIDENT […] FOR MOLECULAR RECOGNITION, METHODS OF MAKING AND USES […]” (MCMASTER UNIVERSITY, published 2026).

Legend:
[1] = target: T1, Bovine serum albumin (BSA) (Bos taurus, UniProt P02769 P02769:25-607); assay: ELONA; settings: tags: Sigma-Aldrich A7906
[2] = target: Spike RBD of seasonal coronavirus OC43 (Human coronavirus OC43, UniProt P36334 P36334:333-607); assay: ELONA; settings: tags: from Dr. Matthew Miller's lab, McMaster University
Spike RBD of seasonal coronavirus OC43, sequence (P36334 333-607, one chain of several): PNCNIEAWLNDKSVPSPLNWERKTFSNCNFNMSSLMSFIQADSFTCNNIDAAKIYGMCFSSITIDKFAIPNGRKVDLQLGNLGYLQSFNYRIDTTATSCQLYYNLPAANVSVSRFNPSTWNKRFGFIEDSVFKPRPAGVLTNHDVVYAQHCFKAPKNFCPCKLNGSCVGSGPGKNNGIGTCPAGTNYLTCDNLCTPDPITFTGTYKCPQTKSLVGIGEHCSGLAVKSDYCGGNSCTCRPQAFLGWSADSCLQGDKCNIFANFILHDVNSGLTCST

[3] = target: Spike RBD of seasonal coronavirus 229E (Human coronavirus 229E, UniProt P15423 P15423:293-435); assay: ELONA; settings: tags: from Dr. Matthew Miller's lab, McMaster University
Spike RBD of seasonal coronavirus 229E, sequence (P15423 293-435, one chain of several): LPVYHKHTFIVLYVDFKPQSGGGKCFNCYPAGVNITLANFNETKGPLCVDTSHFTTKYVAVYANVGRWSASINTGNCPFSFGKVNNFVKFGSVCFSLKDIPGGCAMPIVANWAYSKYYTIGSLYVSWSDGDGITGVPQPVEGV

SARS-CoV-1 spike protein = SARS-CoV-1 spike protein (SARS-CoV-1, UniProt P59594 P59594:14-1195); assay: ELONA; settings: tags: from Dr. Matthew Miller's lab, McMaster University; label: biotin
Amylase = target: T2, Amylase (UniProt P0DUB6 P0DUB6:16-511); assay: ELONA; settings: tags: Sigma-Aldrich A1031
T2 sequence: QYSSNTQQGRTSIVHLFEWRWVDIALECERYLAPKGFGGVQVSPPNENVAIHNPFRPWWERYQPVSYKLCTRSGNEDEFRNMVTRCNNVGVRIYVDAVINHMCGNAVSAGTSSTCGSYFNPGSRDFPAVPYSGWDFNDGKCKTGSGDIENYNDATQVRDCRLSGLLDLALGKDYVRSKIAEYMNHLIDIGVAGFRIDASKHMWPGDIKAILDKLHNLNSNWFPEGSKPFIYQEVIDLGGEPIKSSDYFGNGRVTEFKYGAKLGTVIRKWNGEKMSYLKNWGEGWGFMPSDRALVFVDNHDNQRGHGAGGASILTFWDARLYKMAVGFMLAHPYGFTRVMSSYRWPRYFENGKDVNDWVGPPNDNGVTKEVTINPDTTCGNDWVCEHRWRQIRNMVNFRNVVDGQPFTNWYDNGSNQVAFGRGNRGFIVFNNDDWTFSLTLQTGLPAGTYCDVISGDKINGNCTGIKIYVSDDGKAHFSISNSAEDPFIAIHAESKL

[4] = target: SARS-CoV-2 spike S1 subunit (SARS-CoV-2, UniProt P0DTC2 P0DTC2:14-685); assay: filter
VEGF165 = VEGF165 (UniProt P15692-4 P15692-4:27-191); assay: filter; settings: chain copies: 2 (stated dimeric)
VEGF165, sequence (P15692 other isoform, or with tags, fused parts or gaps): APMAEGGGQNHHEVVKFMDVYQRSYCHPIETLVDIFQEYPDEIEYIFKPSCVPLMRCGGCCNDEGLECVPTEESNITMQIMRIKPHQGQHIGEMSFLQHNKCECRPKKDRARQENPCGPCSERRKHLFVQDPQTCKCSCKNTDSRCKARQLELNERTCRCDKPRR

[5] = target: T1, Bovine serum albumin (BSA); assay: filter; dot blot, no binding; settings: tags: Sigma-Aldrich A7906; label: 5'-32P

T1 sequence (P02769 25-607, one chain of several): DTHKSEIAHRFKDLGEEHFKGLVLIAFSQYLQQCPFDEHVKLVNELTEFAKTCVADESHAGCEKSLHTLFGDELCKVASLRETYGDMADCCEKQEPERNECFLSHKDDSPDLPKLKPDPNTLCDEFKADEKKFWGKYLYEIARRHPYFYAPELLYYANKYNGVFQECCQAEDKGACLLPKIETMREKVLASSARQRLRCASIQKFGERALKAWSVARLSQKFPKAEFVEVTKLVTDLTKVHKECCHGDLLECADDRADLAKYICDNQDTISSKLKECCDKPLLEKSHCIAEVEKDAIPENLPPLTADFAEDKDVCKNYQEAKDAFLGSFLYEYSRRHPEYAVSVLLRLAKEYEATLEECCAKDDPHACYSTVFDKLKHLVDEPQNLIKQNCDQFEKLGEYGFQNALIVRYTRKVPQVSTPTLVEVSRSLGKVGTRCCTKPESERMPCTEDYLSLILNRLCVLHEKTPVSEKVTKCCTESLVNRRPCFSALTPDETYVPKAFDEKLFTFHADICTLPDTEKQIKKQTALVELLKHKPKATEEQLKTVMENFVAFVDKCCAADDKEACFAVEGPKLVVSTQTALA

B1: TMSA52-B (ssDNA)
DNA: TTACGTCAAGGTGTCACTCCGTAGGGTTTGGCTCCGGGCCTGGCGTCGGTCGTCTCTCGCGAAGCATCTCTTTGGCGTGTTTTTTTTTTTTTTT
modifications: three identical arms joined by Trebler, root TTTTT-Biotin
binding result [1]: no binding
binding result [2]: no binding
binding result [3]: no binding
binding result (SARS-CoV-1 spike protein): no binding
binding result (Amylase): no binding

CGAAGCATCTCGTGTCACTCCGTAGGGTTTGGCTCCGGGCCTGGCGTCG (ssDNA) [MSA52T8]
Kd [4]: 6.5 nM

GCCCGTCTTCCAGACAAGAGTGCAGGGC (ssDNA) [H1A]
Kd (VEGF165): 21.3 nM

B2: Trimeric (trident) RHA06 (ssDNA)
DNA: GGGTTTGGGTTGGGTTGGGTTTTTGGGTTTGGGTTGGGTTGGGAAAAATTTTTCTCTCGC
modifications: three identical arms (SEQ 12) joined by Trebler, root TTTTT-Biotin
binding result [5]: no binding

B3: TMSA52T8 (ssDNA)
DNA: CGAAGCATCTCGTGTCACTCCGTAGGGTTTGGCTCCGGGCCTGGCGTCGTTTTTCTCTCGC
modifications: three identical arms joined by Trebler, root TTTTT-Biotin
Kd [4]: 0.21 nM

GCCCGTCTTCCAGACAAGAGTGCAGGGCTTTTTCTCTCGC (ssDNA, three identical arms joined by Trebler, root TTTTT-Biotin) [Trimeric (trident) H1A]
Kd (VEGF165): 0.27 nM
